How the values were obtained:
[1] = tested on: WT NOD mice; test: Acute FABP4 administration; format: in vivo, mouse; conditions: 20 minutes post-injection, vs vehicle-injected controls
Method: (§1) Given the essential role for appropriate beta cell function and insulin secretion in the pathogenesis of diabetes, the pancreata of FABP4 deficient (FABP4^−/−) mice were examined for beta cell mass and insulin content. Animal care and experimental procedures were performed with approval from animal care committees of Harvard University. All mice were housed on a 12-hour light/dark cycle with ad libitum access to chow (PicoLab 5058 LabDiet) and water. FABP4−/− and WT mice were littermates obtained from heterozygous breeding. High fat diet (HFD) fed mice were provided ad libitum access to HFD (60% kcal from fat; Research Diets Inc., D12492i) for 14 weeks beginning at 4 weeks of age. Pancreata and isolated islets were obtained from 7-8-week-old male mice. Blood was collected every other week for 6 hour fasting plasma insulin and FABP4 levels. For acute FABP4 treatment, 10 μg of human recombinant FABP4 (produced in-house) or sterile PBS was injected intraperitoneally. Blood was collected from the tail vein at 0, 10, 20, 30, 60, 120, 240- and 360-minutes post injection for measurement of blood glucose, plasma insulin, and FABP4 levels.

[2] = tested on: WT mice; test: Acute FABP4 administration; format: in vivo, mouse; conditions: 20 minutes post-injection, vs vehicle-injected controls
Method: as §1

[3] = molecular target: T1, recombinant ADK (Homo sapiens, UniProt P55263); test: Recombinant kinase activity assay, ADK (Kinase-Glo); format: biochemical; conditions: recombinant ADK plus the added component
T1 construct: purchased Novus Biologicals or R&D Systems NBP1-44382 or 8024-AK-025
Method: (§2) An on-bead kinase assay was developed to measure the activity of endogenous NDPK and ADK pulled down from serum using a-Ab or c-Ab conjugated beads. Both NDPK and ADK are bi-directional kinases that will produce ATP or ADP depending on the substrates provided (FIGS. 4B-C). Kinase activity assays were performed in 384-well plates in reaction buffer (PBS with 0.1% BSA, 0.01% F-127, 5 mM MgCl2). Experiments with recombinant proteins were performed at final concentrations of 40 μg/ml for ADK and FABP4, and 20 ug/ml for NDPK, and a reaction volume of 10 μl. Antibodies were used at a final concentration of 80 ug/ml. Substrates were added in equimolar ratios depending on the kinase being assayed and the direction of the reaction in serial dose responses, with the highest concentration of 5 μM. Proteins and substrates were incubated for 1 hr at room temperature, and ADP and ATP production were monitored using ADP-Glo and Kinase-Glo kits, respectively, according the manufacturer instructions (V6930 and V6711 Promega, USA). Luminescence was quantified using a SpectraMax Paradigm plate reader 30 min after the addition of substrate. Consistent with the MS results, ADK activity, as measured by generation of ATP, was specifically observed in samples pulled down with a-Ab but not c-Ab (FIG. 5A). […] To test this possibility, the ATP and ADP generating activity of recombinant ADK was assessed in the presence of the proposed complex components.

[4] = molecular target: T2, recombinant NDPK (Homo sapiens, UniProt P15531); test: Recombinant kinase activity assay, NDPK (ADP-Glo/Kinase-Glo); format: biochemical; conditions: recombinant NDPK plus the added component
T2 construct: purchased Acro Biosystems NM1-H5147
T2 sequence (P15531 whole entry): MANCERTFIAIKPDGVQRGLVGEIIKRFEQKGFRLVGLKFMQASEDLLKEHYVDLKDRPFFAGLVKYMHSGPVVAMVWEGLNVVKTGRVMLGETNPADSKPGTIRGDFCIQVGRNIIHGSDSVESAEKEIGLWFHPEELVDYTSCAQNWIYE
Method: as §2

[5] = tested on: primary mouse islets; test: Glucose-stimulated insulin secretion (GSIS), mouse islets; format: cell-based
Method: Primary islet isolation from mice was performed as previously described (Batchuluun et al., 2018; Prentice et al., 2014) and GSIS was assessed following acute treatment with NDPK-ADK in the presence or absence of FABP4. Insulin secretion assays were performed as previously described (Prentice et al., 2014). For primary islets, 20 islets were hand-picked into 1.5 ml tubes, washed twice with Krebs Ringer Buffer (KRB) without glucose, and pre-incubated in 500 μl low glucose (LG; 2.8 mM) KRB for 1 hour at 37° C. KRB was then removed and 250 μl of fresh LG KRB added. Islets were incubated for 20 minutes at 37° C. Supernatant was collected and 250 μl high glucose (HG; 16.7 mM) KRB added. Islets were incubated for 20 minutes at 37° C. In conditions where KCl was used, HG KRB was collected, and 250 μl KC1 (16.7 mM glucose, 30 mM KCl) KRB added. Islets were incubated for 20 minutes at 37° C., and supernatant collected. Following the stimulation protocol, cells were lysed in 100 μl acid ethanol (70% ethanol, 1% HCl in water) and stored at 4° C. overnight. Samples were evaporated using a SpeedVac until dried, and resuspended in 60 μl ultrapure water. DNA was quantified by Nanodrop (ThermoFisher, USA). Insulin from supernatant was quantified using insulin HTRF (Insulin Ultrasensitive Assay kit 62IN2PEH; Cisbio, USA).

[6] = molecular target: T3, Human NDPK-A (Homo sapiens, UniProt P15531); test: Microscale Thermophoresis (MST) one-to-one protein interaction with NDPK; conditions: recombinant proteins, binding to NDPK
T3 construct: purchased Acro Biosystems NM1-H5147
T3 sequence (P15531 whole entry): as above
Method: Additionally, one-to-one recombinant protein interaction assays were performed using Microscale Thermophoresis (MST) to independently validate the interactions between each of the proposed complex components. MST is a technology for the interaction analysis of biomolecules. MST is the directed movement of particles in a microscopic temperature gradient. Any change of the hydration shell of biomolecules due to changes in their structure/conformation results in a relative change of the movement along the temperature gradient and is used to determine binding affinities. MST allows measurement of interactions directly in solution without the need of immobilization to a surface (immobilization-free technology).
To perform this technique, proteins were desalted and buffer exchanged into PBS prior to labeling. […] Experiments were conducted independently with each of NDPK and ADK labeled with each kit (i.e., experiments were performed with lysine-labeled, cysteine-labeled, and His-labeled versions of each protein to confirm the site of labeling was not influencing detected interaction). […] Concentration of labeled proteins ranged from 12 nM to 20 nM, as determined by MST quantification to obtain a fluorescence intensity of ˜350 from each capillary tube. […]

Molecule	plasma insulin [1]	blood glucose levels [2]	ADK activity to generate ATP [3]	activity of NDPK to generate ADP [4]	capacity of NDPK to produce ATP [4]	GSIS ([5]; primary / WT mouse islets)	NDPK-ADK-enhanced GSIS response ([5]; primary mouse islets, added to NDPK-ADK)	Kd [6] [nM]
FABP4: human recombinant FABP4 (produced in-house) (protein) CDAFVGTWKLVSSENFDDYMKEVGVGFATRKVAGMAKPNMIISVNGDVITIKSESTFKNTEISFILGQEFDEVTADDRKVKSTITLDGGVLVHVQKWDGKSTTIKRKREDDKLVVECVMKGVTSTRVYERA	significant reduction	significantly increased	significantly increased	not further influenced	no effect	no effect	significantly blunted	
ADK: recombinant human adenosine kinase (Novus Biologicals or R&D Systems) (protein, listed as Homo sapiens) MAAAEEEPKPKKLKVEAPQALRENILFGMGNPLLDISAVVDKDFLDKYSLKPNDQILAEDKHKELFDELVKKFKVEYHAGGSTQNSIKVAQWMIQQPHKAATFFGCIGIDKFGEILKRKAAEAHVDAHYYEQNEQPTGTCAACITGDNRSLIANLAAANCYKKEKHLDLEKNWMLVEKARVCYIAGFFLTVSPESVLKVAHHASENNRIFTLNLSAPFISQFYKESLMKVMPYVDILFGNETEAATFAREQGFETKDIKEIAKKTQALPKMNSKRQRIVIFTQGRDDTIMATESEVTAFAVLDQDQKEIIDTNGAGDAFVGGFLSQLVSDKPLTECIRAGHYAASIIIRRTGCTFPEKPDFH				significantly reduced	no effect			~1.8

Source: patent US20230203142A1, “TREATMENT OF METABOLIC DISORDERS THROUGH THE TARGETING OF A NOVEL CIRCULATING HORMONE COMPLEX” (The President and Fellows of Harvard College, priority 2020, published 2023)
